From patent publication US20250376529A1 (Amgen, published 2025)
Residue numbers refer to the chain shown, from its start.

B1: 4H9.004.006 (antibody, human IgG1, kappa, N297G, V domains shown)
VH: not shown
VL: DIQMTQSPSSLSASVGDRVTITCRASQGIRNELGWYQQKPGKAPKLLIYGASSLQSGVPSRFSGSGSGTEFTLTISSLQPEDFVTYYCLQHNSYPFTFGQGTKVDVKR
B2: 2G10_LC1.003 (antibody, human IgG1, kappa, N297G, V domains shown)
VH: not shown
VL: EIVMTQSPATLSVSPGERATLSCRASQSVSSNLAWYQQKPGQAPRLLIYGAATRATGIPARFSGSGSGTEFTLTISSLQSEDFAVYYCQQYNNWPLTFGGGTKVEIKR
B3: 2G10_LC1 (antibody, human IgG1, kappa, N297G, V domains shown)
VH: QVQLVESGGGVVQPGRSLRLSCAASGFTFSNYGMHWVRQAPGEGLEWVAAIWFDGSDKYYADSVKGRFTISRDNSKNTLYLQMNSLRAEDTAVYYCARDQAIFGVVPDYWGQGTLVTVSS
VL: B2 VL with F62V
B4: 2G10_LC1.004 (antibody, human IgG1, kappa, N297G, V domains shown)
VH: B3 VH with G55A
VL: B2 VL
B5: 2G10_LC1.005 (antibody, human IgG1, kappa, N297G, V domains shown)
VH: not shown
VL: B2 VL
B6: 2G10_LC1.007 (antibody, human IgG1, kappa, N297G, V domains shown)
VH: not shown
VL: B2 VL with Q79E, S80P, W94F
B7: 2G10_LC1.008 (antibody, human IgG1, kappa, N297G, V domains shown)
VH: not shown
VL: B2 VL with Q79E, S80P, W94Y
B8: 2G10_LC1.009 (antibody, human IgG1, kappa, N297G, V domains shown)
VH: not shown
VL: B2 VL with Q79E, S80P
B9: 2G10_LC1.010 (antibody, human IgG1, kappa, N297G, V domains shown)
VH: not shown
VL: B2 VL with Q79E, S80P
B10: 17H11.004.001 (antibody, human IgG1, kappa, N297G, V domains shown)
VH: QVQLQESGPGLVKPSETLSLTCTVSGGSISSYYWSWIRQPAGKGLEWIGRIYTSGSTNYNPSLKSRVTMSIDTSKNQFSLKLNSVTAADTAVYYCARDVAVAGFDYWGQGTLVTVSS
VL: DIQMTQSPSSVSASVGDRVTITCRASQGLIIWLAWYQQKPGKAPKLLIYAASSLQSGVPSRFSGSGSGTDFTLTISSLQPEDFATYYCQQTNSFPPTFGQGTKVEIKR
notes: also called iPS:359621; iPS:359623
B11: 18E3 (antibody, human IgG1, kappa, N297G)
heavy: not shown
light: EIVLTQSPGTLSLSPGERATLSCRASQSISYSYLAWYQQKPGQAPRLLIYGASSRATGIPDRFSGSGSGTDFTLTISRQEPDDFAVYYCQQYGSSPLTFGGGTKVEIKRTVAAPSVFIFPPSDEQLKSGTASVVCLLNNFYPREAKVQWKVDNALQSGNSQESVTEQDSKDSTYSLSSTLTLSKADYEKHKVYACEVTHQGLSSPVTKSFNRGEC
B12: 18E3.002 (antibody, human IgG1, kappa, N297G)
heavy: not shown
light: B11 light with Q79L
B13: 18E3.003 (antibody, human IgG1, kappa, N297G)
heavy: not shown
light: B11 light
B14: 18E3.004 (antibody, human IgG1, kappa, N297G)
heavy: not shown
light: B11 light with Q79L
B15: 18E3.005 (antibody, human IgG1, kappa, N297G)
heavy: not shown
light: B11 light with Q79L
B16: 18E3.006 (antibody, human IgG1, kappa, N297G)
heavy: not shown
light: B11 light with Q79L
B17: 18E3.007 (antibody, human IgG1, kappa, N297G)
heavy: not shown
light: B11 light
B18: 18E3.008 (antibody, human IgG1, kappa, N297G)
heavy: not shown
light: B11 light
B19: 5C2.007 (antibody, human IgG1, kappa, N297G, V domains shown)
VH: QVPLVQSGAEVKKPGASVKVSCKASGYTFTGYYIHWVRQAPGQGLEWMGWINPESGGTDYSQRFQGRFTMTRDTSISTAYMELNRLRSDDTAVYYCAREATIFGMVIVPFDYWGQGTLVTVSS
VL: not shown
B20: 13H12 (antibody, human IgG1, kappa, N297G, V domains shown)
VH: B19 VH with E54D, N84S
VL: not shown
B21: 13H12.002 (antibody, human IgG1, kappa, N297G, V domains shown)
VH: B19 VH with F68V, N84S
VL: not shown
B22: 13H12.003 (antibody, human IgG1, kappa, N297G, V domains shown)
VH: B19 VH with N84S
VL: not shown
B23: 13H12.004 (antibody, human IgG1, kappa, N297G, V domains shown)
VH: B19 VH with E54D, F68V, N84S
VL: not shown
B24: 13H12.006 (antibody, human IgG1, kappa, N297G, V domains shown)
VH: B19 VH with F68V, N84S
VL: not shown
B25: 4H9.004 (antibody, human IgG1, kappa, N297G, V domains shown)
VH: QVQLVESGGGVVQPGRSLRLSCAASGFTFSYFGMHWVRQAPGKGLEWVAVIWYDGSNKYYADSVKGRFTISRDNSKNTLYLQMNSLRAEDTAVYYCARDGTIFGVLLGDYWGQGTLVTVSS
VL: B1 VL with L46R, Q100P
B26: 12H11.002 (antibody, human IgG1, kappa, N297G, V domains shown)
VH: QVPLVQSGAEVKKPGASVKVSCKASGYTFTGYYIHWVRQAPGQGLEWMGWISPNQGETNYAQKFQDRVTMTRDTSISTAYMELSRLRSDDTAVYYCAREATIFGMLIVPFDYWGQGTLVTVSS
VL: DIVMTQSPDSLSVSLGERATINCKSSQSVLSSSNNKNYLAWYQQKPGQPPNLLIYWTSTRDSGVPDRFSGSGSGTDFTLTINSLQAEDVAVYYCQQYYRTPWTFGQGTKVEIKR
B27: 11C1 (antibody, human IgG1, kappa, N297G, V domains shown)
VH: B26 VH with E46V, Q55S, E57D, N59S, Y95F, A97T
VL: B26 VL
B28: 11C1.002 (antibody, human IgG1, kappa, N297G, V domains shown)
VH: B26 VH with E46V, Q55S, N59S, Y95F
VL: not shown
B29: 11C1.003 (antibody, human IgG1, kappa, N297G, V domains shown)
VH: B26 VH with E46V, Q55S, E57D, N59S, Y95F
VL: not shown
B30: 11C1.004 (antibody, human IgG1, kappa, N297G, V domains shown)
VH: B26 VH with E46V, Q55S, N59S, Y95F
VL: B26 VL
B31: 11C1.005 (antibody, human IgG1, kappa, N297G, V domains shown)
VH: B26 VH with E46V, Q55S, N59S, Y95F, A97T
VL: not shown
B32: 11C1.006 (antibody, human IgG1, kappa, N297G, V domains shown)
VH: B26 VH with E46V, Q55S, E57D, N59S, Y95F, A97T
VL: not shown
B33: 11C1.007 (antibody, human IgG1, kappa, N297G, V domains shown)
VH: B26 VH with E46V, Q55S, N59S, Y95F, A97T
VL: B26 VL
B34: 11C1.008 (antibody, human IgG1, kappa, N297G, V domains shown)
VH: B26 VH with E46V, Q55S, E57D, N59S, Y95F
VL: B26 VL
B35: 12H11 (antibody, human IgG1, kappa, N297G, V domains shown)
VH: B26 VH with Q55N, E57D, A97T
VL: B26 VL
B36: 12H11.003 (antibody, human IgG1, kappa, N297G, V domains shown)
VH: B26 VH with E57D
VL: B26 VL
B37: 12H11.005 (antibody, human IgG1, kappa, N297G, V domains shown)
VH: B26 VH with Q55N
VL: B26 VL
B38: 12H11.006 (antibody, human IgG1, kappa, N297G, V domains shown)
VH: B26 VH with Q55N, E57D
VL: B26 VL
B39: 12H11.007 (antibody, human IgG1, kappa, N297G, V domains shown)
VH: B26 VH with E57D, A97T
VL: B26 VL

Biological target: T1, Rhesus GIPR (rhesus, UniProt F7E1R9 22-466)
T1 sequence: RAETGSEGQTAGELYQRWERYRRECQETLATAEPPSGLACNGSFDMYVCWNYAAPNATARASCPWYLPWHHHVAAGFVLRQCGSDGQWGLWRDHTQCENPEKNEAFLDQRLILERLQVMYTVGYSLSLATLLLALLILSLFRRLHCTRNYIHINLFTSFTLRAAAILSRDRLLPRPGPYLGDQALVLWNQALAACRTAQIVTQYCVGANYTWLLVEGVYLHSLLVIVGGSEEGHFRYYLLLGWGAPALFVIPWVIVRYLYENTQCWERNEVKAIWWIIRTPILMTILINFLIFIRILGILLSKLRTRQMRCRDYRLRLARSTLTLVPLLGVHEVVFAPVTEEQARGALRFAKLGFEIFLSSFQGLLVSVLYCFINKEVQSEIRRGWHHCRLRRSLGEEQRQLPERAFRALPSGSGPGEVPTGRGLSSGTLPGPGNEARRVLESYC
Assay: cell-based or functional assay

| Binder | Rhesus GIPR CAMP Assay (Conc. mAb @ 60% Inhibition in nM) |
| --- | --- |
| B1 | 0.35 nM |
| B2 | 0.85 nM |
| B3 | 0.67 nM |
| B4 | 0.58 nM |
| B5 | 0.43 nM |
| B6 | 16.3 nM |
| B7 | 4 nM |
| B8 | 0.71 nM |
| B9 | 0.86 nM |
| B10 | 0.22 nM |
| B11 | 0.25 nM |
| B12 | 0.16 nM |
| B13 | 0.12 nM |
| B14 | 0.06 nM |
| B15 | 0.1 nM |
| B16 | 0.12 nM |
| B17 | 0.24 nM |
| B18 | 0.37 nM |
| B19 | 0.66 nM |
| B20 | 0.67 nM |

| Binder | Rhesus GIPR CAMP Assay (Conc. mAb @ 60% Inhibition in nM) |
| --- | --- |
| B21 | 0.95 nM |
| B22 | 0.83 nM |
| B23 | 0.56 nM |
| B24 | 0.92 nM |
| B25 | 0.43 nM |
| B26 | 0.45 nM |
| B27 | 0.65 nM |
| B28 | 0.39 nM |
| B29 | 0.48 nM |
| B30 | 0.33 nM |
| B31 | 0.42 nM |
| B32 | 0.51 nM |
| B33 | 0.4 nM |
| B34 | 0.43 nM |
| B35 | 0.79 nM |
| B36 | 0.6 nM |
| B37 | 0.61 nM |
| B38 | 0.59 nM |
| B39 | 0.56 nM |
